Results on one molecule are retold here after patent US20160271292A1 (GEORGIA TECH RESEARCH, published 2016).

Test [1] deals with fibrin (polymerized from purified human fibrinogen with thrombin) (human) (UniProt P02671). As to the kind of experiment: SPR, sdFv flowed over thin fibrin layer, Langmuir 1:1 fit. (In general: SPR reads the build-up and loss of mass on a sensor chip optically.)
For the next test, the target named is T1, BSA (UniProt P02769 25-607).
T1 construct: Control surface in SPR; also called BSA surface
T1 sequence (P02769 25-607 limits assumed): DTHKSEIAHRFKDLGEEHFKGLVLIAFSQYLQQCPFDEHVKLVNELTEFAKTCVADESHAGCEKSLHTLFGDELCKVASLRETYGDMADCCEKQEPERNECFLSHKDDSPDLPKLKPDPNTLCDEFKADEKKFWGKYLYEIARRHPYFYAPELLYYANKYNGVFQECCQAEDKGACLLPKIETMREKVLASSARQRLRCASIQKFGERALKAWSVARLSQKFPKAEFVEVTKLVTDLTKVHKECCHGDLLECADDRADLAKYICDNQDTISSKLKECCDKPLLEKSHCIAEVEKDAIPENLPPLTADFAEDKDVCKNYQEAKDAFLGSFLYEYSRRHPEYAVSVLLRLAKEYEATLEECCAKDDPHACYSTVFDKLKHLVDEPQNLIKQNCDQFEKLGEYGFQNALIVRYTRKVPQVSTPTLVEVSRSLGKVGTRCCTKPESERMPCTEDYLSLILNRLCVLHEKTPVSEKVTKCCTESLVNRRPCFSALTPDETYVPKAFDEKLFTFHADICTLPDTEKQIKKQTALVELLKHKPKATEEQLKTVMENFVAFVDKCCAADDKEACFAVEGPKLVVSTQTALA
In words: SPR, scFv/sdFv flowed over a BSA surface.

B1: H6 fibrin-specific single domain variable fragment antibody (sdFv) (VHH)
VHH: QVQLLESGGGLVQPGGSLRLSCAASGDRFTHNDMGWVRQAPGKGLEWVSTIPTTDGSTYYADSVKGRFTISRDNSKSTLYLQMNSLRAEDTAVYYCATGYMWKAPAYVKYWGQGTLVTVSS
notes: Human-derived single domain antibody with only the VH of human IgG, from a phagemid library; Produced as soluble sdFv in E. coli HB2151 and purified on protein A; also called clone H6; nanobody
B1 came in with a Kd in test [1] of 199 nM. Also, the binding result with BSA is “no binding (tested: not printed)”.

Usually Kd stands for the equilibrium constant for the complex coming apart. A high value points to weaker binding.
